Assays:
CD8+ T cells = experiment: In vitro T-cell priming assay (immunogenicity) with aAPCs loaded with peptide/MHC complexes and anti-CD28 antibody; format: cell-based, human; conditions: for Wells positive [%]: in vitro immunogenicity; for in vitro immunogenicity (peptide-specific CD8+ T cell response): healthy donors, multimer staining after three cycles of stimulation
HLA-A*03:01 = HLA-A*03:01 (Homo sapiens, UniProt P04439); experiment: MHC binding assay (UV-ligand exchange, β2m ELISA); conditions: binding to HLA-A*03:01, UV-ligand exchange, β2m ELISA
Outline: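 Peptide-MHC complexes formed by UV-ligand exchange of a UV-cleavable peptide for the test peptide; exchange yield quantified by β2m ELISA. Streptavidin-coated capture, samples diluted 100-fold, 1 h at 37 °C, HRP anti-β2m detection, TMB read at 450 nm against HLA-A*02:01/MLA-001 monomer standards (15–500 ng/ml).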

[1] = HLA-A*03 restricted peptides, Table 10b

| Peptide exchange (MHC class I binding score, peptide exchange yield) (HLA-A*03:01) | Substance | also measured |
| --- | --- | --- |
| – | 233 (KTYETNLEIKK; listed as Homo sapiens) [compound 233] | Wells positive [%] (CD8+ T cells; Table 10a): + (<20% = +) |
| – | ATSGVPVYK (listed as Homo sapiens) [SEQ ID NO: 249] | in vitro immunogenicity (peptide-specific CD8+ T cell response) (CD8+ T cells): peptide-specific in vitro CD8+ T cell responses |
| ++++ (>75% = ++++) | 45 (KCYEVGMMK; listed as Homo sapiens) [compound 45] | Wells positive [%] (CD8+ T cells; [1]): “+” (1-19% = +) |
| ++ (>20% = ++) | 77 (VVDDSQLPK; listed as Homo sapiens) [compound 77] | Wells positive [%] (CD8+ T cells; [1]): “+” (1-19% = +) |
| – | 248 (GLASRILDAK; listed as Homo sapiens) [compound 248] | Wells positive [%] (CD8+ T cells; Table 10a): + (<20% = +) |
| ++++ (>75% = ++++) | 64 (SVLSRMLVR; listed as Homo sapiens) [compound 64] | Wells positive [%] (CD8+ T cells; [1]): “+” (1-19% = +) |
| – | GLASRILDAK (listed as Homo sapiens) [SEQ ID NO: 248] | in vitro immunogenicity (peptide-specific CD8+ T cell response) (CD8+ T cells): peptide-specific in vitro CD8+ T cell responses |
| ++ (>20% = ++) | 33 (KLLEDMVEK; listed as Homo sapiens) [compound 33] | Wells positive [%] (CD8+ T cells; [1]): “+” (1-19% = +) |
| – | 249 (ATSGVPVYK; listed as Homo sapiens) [compound 249] | Wells positive [%] (CD8+ T cells; Table 10a): ++++ (>=70% = ++++) |
| +++ (>50 = +++) | 57 (RVLYRPQLEK; listed as Homo sapiens) [compound 57] | Wells positive [%] (CD8+ T cells; [1]): “+” (1-19% = +) |
| ++++ (>75% = ++++) | 52 (GMYEYGSIEK; listed as Homo sapiens) [compound 52] | Wells positive [%] (CD8+ T cells; [1]): “+” (1-19% = +) |
| – | 234 (VVFPFPVNK; listed as Homo sapiens) [compound 234] | Wells positive [%] (CD8+ T cells; Table 10a): + (<20% = +) |
| +++ (>50 = +++) | 46 (VVTGNVPLK; listed as Homo sapiens) [compound 46] | Wells positive [%] (CD8+ T cells; [1]): “+” (1-19% = +) |
| – | 237 (VLYGPAGLGK; listed as Homo sapiens) [compound 237] | Wells positive [%] (CD8+ T cells; Table 10a): + (<20% = +) |
| – | 232 (AVAPPTPASK; listed as Homo sapiens) [compound 232] | Wells positive [%] (CD8+ T cells; Table 10a): + (<20% = +) |
| ++++ (>75% = ++++) | 99 (RTYTCQVTY; listed as Homo sapiens) [compound 99] | – |
| ++++ (>75% = ++++) | 63 (SSFRPLLSK; listed as Homo sapiens) [compound 63] | – |
| +++ (>50 = +++) | 9 (HVLYPVPLESY; listed as Homo sapiens) [compound 9] | – |
| +++ (>50 = +++) | 185 (SIINFKPLTY; listed as Homo sapiens) [compound 185] | – |
| +++ (>50 = +++) | 202 (RLFPGLYLGY; listed as Homo sapiens) [compound 202] | – |
| +++ (>50 = +++) | 147 (KLFMPRPK; listed as Homo sapiens) [compound 147] | – |
| ++++ (>75% = ++++) | 219 (ALERKFRQK; listed as Homo sapiens) [compound 219] | – |
| +++ (>50 = +++) | 51 (VTADGALAMEK; listed as Homo sapiens) [compound 51] | – |
| ++++ (>75% = ++++) | 182 (QICLPAIYK; listed as Homo sapiens) [compound 182] | – |
| ++++ (>75% = ++++) | 197 (RIVDYLLEK; listed as Homo sapiens) [compound 197] | – |
| ++++ (>75% = ++++) | 208 (KTGWFTLLY; listed as Homo sapiens) [compound 208] | – |
| +++ (>50 = +++) | 129 (ALARVSSVKL; listed as Homo sapiens) [compound 129] | – |

— US11872270B2, “A*03 restricted peptides for use in immunotherapy against cancers and related methods” (Immatics Biotechnologies GmbH, priority 2018, dated 2024)
